Results on three molecules are retold here after publication PMC4356359, “The structure of bradyzoite-specific enolase from Toxoplasma gondii reveals insights into its dual cytoplasmic and nuclear functions”.

The target in this data set is T1, TgENO1 (bradyzoite enolase 1) (Toxoplasma gondii, UniProt B9PH47 1-444).
T1 sequence: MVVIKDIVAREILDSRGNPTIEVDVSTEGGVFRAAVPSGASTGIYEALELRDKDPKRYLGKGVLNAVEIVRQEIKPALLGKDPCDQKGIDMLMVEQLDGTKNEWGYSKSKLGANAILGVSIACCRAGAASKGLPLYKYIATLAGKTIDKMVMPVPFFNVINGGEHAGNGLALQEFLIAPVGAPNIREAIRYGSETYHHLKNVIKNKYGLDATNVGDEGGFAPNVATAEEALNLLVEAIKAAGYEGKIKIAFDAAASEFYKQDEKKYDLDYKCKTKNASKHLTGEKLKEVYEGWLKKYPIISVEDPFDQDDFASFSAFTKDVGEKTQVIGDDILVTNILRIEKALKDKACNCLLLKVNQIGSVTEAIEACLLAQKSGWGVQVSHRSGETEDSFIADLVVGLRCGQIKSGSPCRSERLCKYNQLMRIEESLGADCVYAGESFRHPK
As to the kind of experiment: EMSA; EMSA with Thermo Scientific band-shift kit per manufacturer; buffer, salt, pH and temperature not stated (protein stock 10 mM Tris-HCl pH 8.3, 500 mM NaCl, 5 mM beta-mercaptoethanol). The settings on record: protein: recombinant; tags: N-terminal His-TEV (pCCK-N'-HisTEV vector).

B1: probe B (c-Myc promoter TATA box) (dsDNA)
DNA 1: ATATAAAATCCGTA
DNA 2: TACGGATTTTATAT
For the molecule B1, the binding result is “no binding”.

B2: TgMAG1 probe (TTTTCT motif) (dsDNA)
DNA 1: TTTTCTTCTCAAGA
DNA 2: TCTTGAGAAGAAAA
With B2, the binding result was “binds”.

B3: probe C (random negative control) (dsDNA)
DNA 1: TTCTCCTGTGTCAT
DNA 2: ATGACACAGGAGAA
With B3, the binding result is “no binding”.
